# Laboratory results as given in PMC3175489.
# B1: NANOG cognate probe (Tcf3 enhancer) (dsDNA)
# DNA 1: ACCTGTTAATGGGAGCGC
# DNA 2: GCGCTCCCATTAACAGGT
# B2: nonsense probe (dsDNA)
# DNA 1: GCCCGATTACTCTGTCCT
# DNA 2: AGGACAGAGTAATCGGGC
# B3: SOX2 cognate probe (CR4 POU5F1) (dsDNA)
# DNA 1: GCAGAGGACAAAGGTGCCGTG
# DNA 2: CACGGCACCTTTGTCCTCTGC
# Tests used:
# [1] = biological target: NANOG (human, UniProt Q9H9S0 1-305); assay: Ni-NTA filter microplate fluorescent DNA binding
# [2] = biological target: T1, SOX2 (human, UniProt P48431 1-317); assay: competition
# [3] = biological target: T1, SOX2; assay: Ni-NTA filter microplate fluorescent DNA binding
# T1 sequence (P48431 whole entry): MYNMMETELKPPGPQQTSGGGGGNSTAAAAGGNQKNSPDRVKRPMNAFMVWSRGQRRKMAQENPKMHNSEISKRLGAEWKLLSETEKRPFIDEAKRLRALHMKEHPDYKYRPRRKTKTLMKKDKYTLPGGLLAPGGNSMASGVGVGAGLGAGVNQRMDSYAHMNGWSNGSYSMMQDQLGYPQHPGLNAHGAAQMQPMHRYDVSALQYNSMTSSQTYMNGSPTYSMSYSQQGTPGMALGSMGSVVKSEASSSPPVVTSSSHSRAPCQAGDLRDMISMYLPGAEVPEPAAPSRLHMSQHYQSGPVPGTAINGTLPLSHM
# Chain of NANOG (Q9H9S0 whole entry): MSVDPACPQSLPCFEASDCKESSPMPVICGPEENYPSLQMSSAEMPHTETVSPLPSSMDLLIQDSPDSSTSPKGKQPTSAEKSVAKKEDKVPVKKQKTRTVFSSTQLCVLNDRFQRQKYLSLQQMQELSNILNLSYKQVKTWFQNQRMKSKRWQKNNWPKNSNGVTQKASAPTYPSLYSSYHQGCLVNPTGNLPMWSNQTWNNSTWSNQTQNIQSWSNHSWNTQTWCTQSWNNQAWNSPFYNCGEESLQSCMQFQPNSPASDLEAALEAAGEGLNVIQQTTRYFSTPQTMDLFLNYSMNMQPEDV
binder,measurement,setting,value
B1,Kd,[1],44 ± 6 nM
B2,binding result,[2],no binding
B3,Kd,[3],54.2 ± 9 nM
